The source of these data is patent US5512545.

The assay addresses PDGF receptors (alpha and beta sub-units).

For the substance “PDGF-B (naturally occurring, full length; product of Comparative Example A) (ligand)”, the Mitogenesis ng/ml ([3H]thymidine uptake by Swiss 3T3 cells; activity read from the dose response curve of the PDGF-BB standard c-sis) was determined as 308 ng/mL.
